From the Human Domainome abundance scans (Beltran et al. 2025)

B1: CD2-associated protein, residues 271 to 331; numbered along this chain, Q9Y5K6 (parent)
chain: KEYCRTLFAYEGTNEDELTFKEGEIIHLISKETGEAGWWRGELNGKEGVFPDNFAVQINEL

Variants of: B1
Test: abundance fitness (aPCA) (normalised: wild type 0, dead -1); higher = more abundant; growth selection in yeast, the domain comes from the species named
Conditions: Homo sapiens

Abundance fitness of substitutions, site by site:
V56: M -0.073, C -0.314, T 0.033, N -0.339, R -0.161, Q -0.226, F -0.456, G -0.173, L -0.264, P -0.567, E 0.003, K -0.05, W -0.434, H -0.317, Y -0.409, I -0.327, S -0.243
L61: E 0.026, T 0.105, A 0.033, C 0.275, R -0.049, Q 0.113, V 0.02, S 0.152, H 0.009, W -0.116, P 0.215, I -0.29, M -0.003, K 0.033, Y 0.064
N59: H -0.1, W -0.367, Y -0.332, G -0.037, P -0.032, K -0.274, V -0.349, L -0.501, Q -0.056, E -0.05, I -0.702, T -0.147, M -0.426, S 0.009, D -0.145
Q57: I -0.006, T -0.024, K -0.188, S -0.182, A -0.023, N -0.077, D -0.097, E -0.016, Y -0.463, R -0.155, C -0.139, H -0.051, W -0.532, V -0.058, L -0.046, F -0.295
E60: N -0.227, T -0.11, Q -0.115, P -0.015, V -0.291, F -0.213, A -0.05, I -0.475, L -0.296, K 0.03, M -0.42, R -0.178, G 0.013, H 0.13, D 0.172, C -0.127, W -0.258, S -0.124
A55: M -0.886, T -0.149, Y -0.919, R -1.07, W -0.623, V 0.034, P -0.738, S -0.505
I58: A -0.151, H -0.234, C -0.112, N -0.378, F -0.126, T -0.136, L -0.026, Y -0.249, D 0, V 0.005, Q -0.247, W -0.213, R -0.417, P -0.431, S -0.233
